Reference: paper PMC4516285 (Biochemistry, 2015)

T1: wild type Escherichia coli CheY (E. coli, UniProt P0AE67 2-129)
T1 sequence: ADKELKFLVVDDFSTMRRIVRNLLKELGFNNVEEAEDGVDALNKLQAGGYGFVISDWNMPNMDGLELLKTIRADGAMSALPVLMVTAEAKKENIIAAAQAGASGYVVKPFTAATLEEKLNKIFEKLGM


What was measured:
[1] = biological target: FliM 1-16 (Escherichia coli) (UniProt P06974); conditions: cited from earlier work
[2] = biological target: T1, wild type Escherichia coli CheY; assay: other fluorescence titration

| Molecule | Kd [1] [µM] | Kd [2] [µM] |
| --- | --- | --- |
| CheY (from UniProt P0AE67) | 280 | – |
| MGDSILSQAEIDALLN [FliM_(1–16) peptide (amino terminal 16 residues of E. coli FliM)] | – | 370 |
